We go through 9 substances from patent US20240294646A1.

For experiment [1], the target named is FcγRIIb (UniProt P31994). Nature of the experiment: SPR; IIb-Fold divided by IIaR-Fold (FcγRIIb against FcγRIIaR).
The target in experiment [2] is FcγRIIb (UniProt P31994). Nature of the experiment: SPR, antibody captured on immobilised HER2, receptor as analyte; fold affinity over WT v16463. Background: SPR reads the build-up and loss of mass on a sensor chip optically.
In experiment [3] the target is FcγRIIaR (UniProt P12318). The experiment is described as above.
The target in experiment [4] is Soluble FcγRIIaR extracellular domain with C-terminal 10xHis tag (UniProt P12318). Nature of the experiment: SPR, antibody captured on immobilised HER2, soluble receptor as analyte.
Experiment [5] addresses Soluble FcγRIIb extracellular domain with C-terminal 10xHis tag (UniProt P31994). Described as above.
Experiment [6] concerns the target Soluble FcγRIIaR extracellular domain with C-terminal 10xHis tag (UniProt P12318). Nature of the experiment: SPR; fold change in affinity over WT v16463.
For experiment [7], the target named is Soluble FcγRIIb extracellular domain with C-terminal 10xHis tag (UniProt P31994). Nature of the experiment: SPR; fold change in affinity over WT v16463.
In experiment [8] the target is Biotinylated FcγRIIb extracellular domain-Fc fusion (human IgG1 Fc with L234A_L235A_D265S) (human) (UniProt P31994). Nature of the experiment: competition electrochemiluminescence, antibody on HER2-coated plate, biotinylated FcγRIIb-Fc; competitor FcγRIIaR-Fc at 10x.
Experiment [9] addresses Soluble FcγRIIb extracellular domain with C-terminal 10xHis tag (UniProt P31994). Nature of the experiment: SPR; selectivity relative to control v27293.
Experiment [10] has the same target. Nature of the experiment: SPR; IIb-Fold / IIaR-Fold.
Experiment [11] concerns the target Soluble FcγRIIaR extracellular domain with C-terminal 10xHis tag (UniProt P12318). Nature of the experiment: SPR; fold relative to control v27293.
The target of experiment [12] is Soluble FcγRIIb extracellular domain with C-terminal 10xHis tag (UniProt P31994). Nature of the experiment: SPR; fold relative to control v27293.
Experiment [13] concerns the target Biotinylated FcγRIIb extracellular domain-Fc fusion (human IgG1 Fc with L234A_L235A_D265S) (human) (UniProt P31994). Nature of the experiment: competition electrochemiluminescence (MSD), antibody on coated HER2, biotinylated FcγRIIb-Fc with FcγRIIaR-Fc as competitor.
The target in experiment [14] is Soluble FcγRIIaR extracellular domain with C-terminal 10xHis tag (UniProt P12318). Nature of the experiment: SPR; fold change in affinity over wild-type v16463.
The target in experiment [15] is Soluble FcγRIIb extracellular domain with C-terminal 10xHis tag (UniProt P31994). Nature of the experiment: SPR; fold change in affinity over wild-type v16463.
For experiment [16] the target is unchanged. Nature of the experiment: SPR; IIb-Fold/IIaR-Fold (FcγRIIb against FcγRIIaR).
In experiment [17] the target is Soluble FcγRIIaR extracellular domain with C-terminal 10xHis tag (UniProt P12318). Nature of the experiment: SPR (Biacore 4000), antibody captured on immobilised HER2, receptor as analyte.
In experiment [18] the target is Soluble FcγRIIb extracellular domain with C-terminal 10xHis tag (UniProt P31994). The experiment is described as above.
Experiment [19] has as its target FcγRIIb (UniProt P31994). Nature of the experiment: SPR; IIb-Fold divided by IIaR-Fold, selectivity for FcγRIIb over FcγRIIaR relative to wild-type.
A further experiment has as its target FcγRIa (UniProt P12314). Nature of the experiment: SPR, antibody captured on HER2 chip, receptor as analyte; fold change in affinity over wild-type.
The target in experiment [20] is FcγRIIb (UniProt P31994). The experiment is described as above.
Experiment [21] deals with FcγRIIaR (UniProt P12318). The description is as above.
A further experiment has as its target FcγRIIIaF (UniProt P08637). The experiment is described as above.
The target of another experiment is FcγRIIaH (UniProt P12318). The experiment is described as above.
Experiment [22] has as its target FcγRIIb (UniProt P31994). Nature of the experiment: SPR (Protocol 2), against wild-type 16463.
For experiment [23], the target named is FcγRIIb (UniProt P31994). Nature of the experiment: SPR (Protocol 2, Biacore 4000), antibody captured on immobilised HER2, FcγR as analyte.
The target in experiment [24] is FcγRIIaR (UniProt P12318). The description is as above.
The target of experiment [25] is FcγRIIb (UniProt P31994). Nature of the experiment: SPR (Protocol 2); selectivity for FcγRIIb against FcγRIIaR.
Experiment [26] concerns the target Soluble FcγRIIb extracellular domain with C-terminal 10×His tag (UniProt P31994). Nature of the experiment: SPR; ratio of IIb-Fold to IIaR-Fold (FcγRIIb against FcγRIIaR).
Experiment [27] has the same target. Nature of the experiment: SPR; KD ratio against wild-type v16463.
In experiment [28] the target is Soluble FcγRIIaR extracellular domain with C-terminal 10×His tag (UniProt P12318). Nature of the experiment: SPR; KD ratio against wild-type v16463.
In experiment [29] the target is Soluble FcγRIIb extracellular domain with C-terminal 10×His tag (UniProt P31994). Nature of the experiment: SPR, antibody captured on HER2 chip, receptor as analyte.
Experiment [30] deals with Soluble FcγRIIaR extracellular domain with C-terminal 10×His tag (UniProt P12318). The description is as above.
The target of experiment [31] is Biotinylated FcγRIIb extracellular domain-Fc fusion (human IgG1 Fc with L234A_L235A_D265S) (human) (UniProt P31994). Nature of the experiment: competition electrochemiluminescence assay; antibody on HER2, biotinylated FcγRIIb-Fc, competitor FcγRIIaR-Fc.
The target of experiment [32] is Soluble FcγRIIb extracellular domain with C-terminal 10×His tag (UniProt P31994). Nature of the experiment: SPR; KD of WT v16463 / KD of variant.
In experiment [33] the target is Soluble FcγRIIaR extracellular domain with C-terminal 10×His tag (UniProt P12318). Nature of the experiment: SPR; KD of WT v16463 / KD of variant.
The target of experiment [34] is Soluble FcγRIIb extracellular domain with C-terminal 10×His tag (UniProt P31994). Nature of the experiment: SPR; IIb-Fold / IIaR-Fold (FcγRIIb against FcγRIIaR).
Experiment [35] shares this target. Nature of the experiment: SPR (Biacore 4000), antibody captured on immobilised HER2, receptor as analyte.
The target of experiment [36] is Soluble FcγRIIaR extracellular domain with C-terminal 10×His tag (UniProt P12318). The experiment is described as above.
For experiment [37], the target named is FcγRIIaR, soluble extracellular domain (UniProt P12318). Nature of the experiment: SPR (General Methods Protocol 2): one-armed antibody captured on immobilised HER2, soluble receptor as analyte.
In experiment [38] the target is FcγRIIb, soluble extracellular domain (UniProt P31994). The experiment is described as above.
Experiment [39] addresses FcγRIIaR, soluble extracellular domain (UniProt P12318). Nature of the experiment: SPR; fold change in affinity over wild-type v16463.
For experiment [40], the target named is FcγRIIb, soluble extracellular domain (UniProt P31994). Nature of the experiment: SPR; fold change in affinity over wild-type v16463.
For experiment [41] the target is unchanged. Nature of the experiment: SPR; IIb-Fold/IIaR-Fold (FcγRIIb against FcγRIIaR), vs. wild-type v16463.
Experiment [42] concerns the target Soluble FcγRIIb extracellular domain with C-terminal 10×His tag (UniProt P31994). Nature of the experiment: SPR (Protocol 2): full-size antibody captured on immobilised HER2, soluble receptor as analyte; fold over wild-type.
Experiment [43] concerns the target Soluble FcγRIIaR extracellular domain with C-terminal 10×His tag (UniProt P12318). Described as above.
In experiment [44] the target is Soluble FcγRIIb extracellular domain with C-terminal 10×His tag (UniProt P31994). Nature of the experiment: SPR (Protocol 2); ratio of FcγRIIb fold to FcγRIIaR fold over wild-type.

“Variant 27362, Strat 3 control (A_G236N_G237A / B_G236D_G237F_S239D_S267V_H268D) (antibody)”: the IIb Selectivity with FcγRIIb [1] came out at 9 fold. This substance also returned an IIb-Fold in the experiment with FcγRIIb [2] of 9 fold. The IIaR-fold in the experiment with FcγRIIaR [3] came to 1 fold.
Regarding “Variant 27293, Launching Module 1 (A_G236N_G237A / B_G236D_G237F_S239D_S267V_H268D_Template_1), one-armed trastuzumab antibody”, the values for the Kd in [4] and in [5] were 8.8 nM and 3.5 nM, respectively. This substance also came in with an IIaR-fold in [6] of 35.2 fold. Moreover, the IIb-Fold in experiment [7] was 415 fold. Further, in experiment [8], the ELISA (% of non-competed FcγRIIb signal in presence of 10x FcγRIIa) was determined as 70.8%. This substance displayed an IIb Selectivity Fold wrt Control in experiment [9] of 1 fold. This substance displayed an IIb Selectivity in [10] of 11.8. The IIaR-Fold wrt Control in experiment [11] came out at 1 fold. Also, the IIb-Fold wrt Control in experiment [12] turned out to be 1 fold.
Regarding “v12, symmetrical E233D_G237D_P238D_H268D_P271G_A330R (IIb-specific comparator) (antibody)”, in [13], the ELISA (% of non-competed FcγRIIb signal in presence of 10x FcγRIIa) turned out to be 100%. In addition, the IIaR-fold in [14] is 1.4 fold. In [15], the IIb-Fold stood at 112 fold. The substance further registered an IIb Selectivity in [16] of 80.5 fold. For the same substance, the equilibrium dissociation constant (Kd) in experiment [17] amounted to 220 nM; in experiment [18], 13 nM.
“v12 (OAA), IIb-specific comparator, trastuzumab one-armed antibody with symmetrical E233D_G237D_P238D_H268D_P271G_A330R”: in the experiment with FcγRIIb [19], the IIb/IIaR Selectivity (ratio (IIb-Fold/IIaR-Fold)) was 82.9. The FcγR Binding (Fold Change over WT) with FcγRIa is 0 fold over WT; in the experiment with FcγRIIb [20], 112 fold over WT; with FcγRIIaR [21] it was 1.4 fold over WT; with FcγRIIIaF, 0.1 fold over WT; with FcγRIIaH, 0.1 fold over WT.
Regarding “Variant 18372, control without loop replacement (chain B S239D_H268D), one-armed antibody Scaffold 2”, the IIb-Fold (fold change in affinity over wild-type) (fold over wild-type) with FcγRIIb [22] was 29.3. Moreover, the equilibrium dissociation constant (Kd) with FcγRIIb [23] stood at 39 nM; with FcγRIIaR [24] it was 17 nM. For the same substance, the IIb/IIaR Selectivity with FcγRIIb [25] came to 1.4.
For the substance “v12, IIb-specific comparator with symmetrical E233D_G237D_P238D_H268D_P271G_A330R (Mimoto et al. 2013), trastuzumab antibody”, the IIb Selectivity (IIb-Fold/IIaR-Fold) in [26] was 80.5 fold. Moreover, the IIb-Fold in experiment [27] turned out to be 112 fold. The IIaR-fold in [28] came to 1.4 fold. Besides, the Kd worked out at 13 nM in [29] and 220 nM in experiment [30]. Besides, the ELISA (% of non-competed FcγRIIb signal in presence of 10x FcγRIIa) in [31] is 100%.
Substance “Variant 16463, wild-type one-armed trastuzumab antibody with heterodimeric IgG1 Fc” came in with an IIb-Fold in experiment [32] of 1 fold. Further, the IIaR-fold in experiment [33] was found to be 1 fold. In experiment [34], this substance showed an IIb Selectivity of 1 fold. Moreover, the Kd in [35] is 1400 nM; in experiment [36], 310 nM.
For the substance “Variant 16463, wild-type one-armed trastuzumab antibody (OAA) with heterodimeric IgG1 Fc”, the dissociation constant Kd was determined as 310 nM in [37] and 1400 nM in experiment [38]. This substance also came in with an IIaR-Fold vs. WT in experiment [39] of 1 fold. The IIb-Fold vs. WT in experiment [40] worked out at 1 fold. The substance also yielded an IIb/IIaR Selectivity vs. WT in experiment [41] of 1 fold.
Turning to “Variant 22127, full-size antibody (FSA) format of v19540 (trastuzumab, heterodimeric IgG1 Fc; A: L234D_G236N_S267A / B: G236D_S239D_V266L_S267A_H268D)”, the IIb-fold (fold change in affinity over wild-type) in experiment [42] amounted to 23.9 fold. In [43], the IIaR-fold (fold change in affinity over wild-type) came to 1.6 fold. Further, the IIb/IIaR Selectivity (IIb-Fold/IIaR-Fold) in [44] was 15.2.

One may read the Kd as a measure of binding affinity in units of concentration.
